Laboratory results as given in patent publication US20090233993A1, “COMPOSITIONS AND METHODS FOR INHIBITING GSK3 ACTIVITY AND USES THEREOF” (Burnham Institute for Medical Research, priority 2008, published 2009).
“Also recorded” adds a separate entry of the source.

Key:
GSK-3α/β = experiment: phospho-GSK-3α (Ser21)/GSK-3β (Ser9) Western blot in mouse N2a/N2aSwe cells; type: cell-based
Source text: The accumulation of βCTF can also be attributed to decrease in γ-secretase cleavage. However, the Notch cleavage was not altered by overexpression of the recombinant FG01 (FIG. 9A). […] Thus, the activities of GSK-3α/β were examined with or without overexpressing FG01. First, the levels of phospho-GSK3α at Ser21 and GSK-3β at Ser9 (the inactivated forms of GSK3) were quantified using the specific antibodies.
(§1) The levels of the recombinant Notch (NotchΔE with Myc-tag) and the γ-secretase cleaved Notch fragment (NICD) were quantified by Western blotting using myc antibody and an antibody specific to processed Notch followed by densitometry. […] The results represent at least four independent experiments.
The levels of total GSK-3 were used as normalization factors.
Although the possibility that FG01 may modulate substrate specificity or accessibility to γ-secretase can not be excluded, it is equally possible that FG01 regulates other proteins/pathways functioning in APP processing and Aβ generation. […] Thus, the activities of GSK-3α/β were studied in the presence or absence of FG01 overexpression by examining levels of phospho-GSK-3α (Ser 21) and phospho-GSK-3β (Ser 9) (which represent inactivated forms of GSK-3) and by in vitro kinase assays.

β-catenin = β-catenin level in human HEK293 cells (Western blot); type: cell-based; conditions: FG01 expression
Source text: Expression of β-catenin, inactivated phospho-GSK-3β, total GSK-3, APP, β-CTF and FG01 in transfected human HEK293 cells were shown by Western blots.

CDK5 = CDK5 protein level and in vitro activity in N2a cells; type: cell-based, mouse; conditions: FG01 overexpression
Experimental: The in vitro activity of CDK5 was assayed as described (Han et al., 2005). Briefly, CDK5 protein was immunoprecipitated and incubated with histone-H1 in [γ-^32P]ATP-containing buffer. After reaction termination, samples were subjected to SDS-PAGE and autoradiography. Results were quantified using a PhosphoImager (Molecular Dynamics).
GSK-3 is a major kinase that phosphorylates tau in AD (Flaherty et al., 2000). […] N2aSwe cells were cotransfected with the human tau splice variant T40 and with FG01 (or control vectors), and examined tau phosphorylation at the threonine 205 site (Thr205) and the PHF-1 tau epitope sites (serine 396 and serine 404), which are GSK-3 phosphorylation targets, and at the major paired helical filament (PHF) sites found in NFTs. […] Protein levels and activity of CDK5, another kinase mediating tau phosphorylation in AD (Flaherty et al., 2000), was analyzed following FG01 overexpression. […] N2a cells were transfected with FG01 or a control vector (Con). Equal cell lysate proteins were used for assaying in vitro CDK5 activity.

γ-secretase = γ-secretase cleavage on Notch (NICD generation) and nicastrin level; type: cell-based, mouse
Source text: as §1
N2a cells were transfected with Myc-tagged Notch1 NΔE construct lacking the ectodomain, which allows ligand-independent processing by γ-secretase to produce NICD (Schroeter et al., 1998). NICD generation was analyzed by immunoblot with an antibody specifically recognizing the cleaved Notch product NICD (Cell Signaling Technology).
Cleavage of Notch, another important γ-secretase substrate (Kopan and Goate, 2000), was not altered by FG01 overexpression. N2a cells were transfected with Myc-tagged Notch1 NΔE construct. After equal splitting, cells were transfected with control vector (Con) or FG01. Cell lysates were subjected to SDS-PAGE and Western blot with the Myc antibody (recognizing both exogenous FG01 and Notch NΔE) and with an NICD-specific antibody. Protein levels of nicastrin, an important component of the γ-secretase complex, were also not affected by FG01 overexpression.

B1: FG01: 141 amino acid transmembrane protein encoded by mouse retrogene fg01 (SEQ ID NO:2); expressed from transfected vector or transgene (protein)
chain: MQSQQRNIGYFNHLKADSRNITYSMTFSTKSSNQNFIIFLNEVQAAIIGHERCDLLPVLNELHPDALPDGRIWLFGLNPYFFQHNSLCMRGTPKRIGLQGCAQVGFLVLFVMPLLIPSVTAELPGSSETTTLAHLAGATGP
modifications: Myc and His6 tags; homo sapien
notes: expressed from transfected vector or transgene
- GSK-3α/β activity in the presence of lithium (GSK-3α/β; FG01-transfected N2aSwe cells, 5 mM LiCl 4 hrs): could not further reduce
- GSK-3 activities (inactivated phospho-GSK-3β) (GSK-3α/β; FG01 overexpression, mouse N2a cells, Western blot): decreases
- phospho-GSK-3α (Ser21) and phospho-GSK-3β (Ser9) levels (inactivated forms) (GSK-3α/β; FG01 overexpression, mouse N2aSwe cells): more GSK-3α/β were phosphorylated; also recorded: more highly phosphorylated
- level of β-catenin (β-catenin): increases
- CDK5 in vitro activity (CDK5): Little change
- CDK5 protein level (CDK5): Little change
- protein levels of nicastrin (γ-secretase; FG01 overexpression in N2a cells): not affected
- Notch cleavage (γ-secretase; Notch ΔE cotransfected with FG01): not altered
